T1: Orencia
T1 sequence (chain, INN chains, looked up, looked up): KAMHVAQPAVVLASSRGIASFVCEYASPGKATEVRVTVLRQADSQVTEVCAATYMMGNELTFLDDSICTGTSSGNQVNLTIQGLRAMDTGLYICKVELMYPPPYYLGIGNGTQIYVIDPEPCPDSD

T2: CTLA-4 expressed on the cell surface of CHO cells (Homo sapiens (Human), UniProt P16410 36-223)
T2 construct: also called CTLA-4 with its natural structure
T2 sequence: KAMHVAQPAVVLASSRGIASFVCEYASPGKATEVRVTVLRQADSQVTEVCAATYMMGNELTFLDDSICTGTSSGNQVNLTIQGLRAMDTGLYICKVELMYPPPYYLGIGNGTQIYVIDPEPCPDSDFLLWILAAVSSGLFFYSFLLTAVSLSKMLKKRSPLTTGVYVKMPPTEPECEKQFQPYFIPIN

T3: CTLA4 of the CTLA4:B7-1[Biotinylated] Inhibitor Screening Assay Kit (BPS Bioscience) (human, UniProt P16410 37-162, limits assumed)
T3 construct: Kit protein
T3 sequence: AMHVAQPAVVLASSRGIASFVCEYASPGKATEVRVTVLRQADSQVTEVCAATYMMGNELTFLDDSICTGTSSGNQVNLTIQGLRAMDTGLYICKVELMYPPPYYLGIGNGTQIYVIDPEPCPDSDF

B1: No. #19 synthetic peptide used in FACS (peptide)
peptide: CMHPFLPIVSHHFCER
modifications: disulfide 1-14 (inferred); also: form used in FACS not given here: biotinylated or N-terminal Gly
B2: Gly-clone #19: GCMHPFLPIVSHHFCER (peptide)
peptide: GCMHPFLPIVSHHFCER
modifications: disulfide 2-15 (inferred)
notes: chemically synthesised, glycine added to the N-terminus; also called synthesized peptide (Clone No. #19)

Bridges are numbered along the chain shown (N, C = ends). Where no end group is shown, it is not given here.

The first experiment addresses T1, Orencia. The experiment in a line: ELISA, MBP fusion in E. coli lysate on Orencia. The method, then:
(§1) 10 μL of E. coli cultured medium was added with 90 μL of PBS and 40 μL of lysis reagent (20 μL BugBuster Protein Extraction Reagent (Novagen), 20 μL Lysozyme solution 2.5 mg/mL) to lyse E. coli cells for 1 hour at room temperature. […] In parallel, antigen protein was immobilized overnight at 4° C. in 384-well plates at 100 ng/20 μL per well, and each well was washed twice with 100 μL/well of TBST, added with 100 μL/well of 5% skim milk solution (TBST) for blocking for 1 hour at room temperature, and washed twice with 100 μL/well of TBST to obtain antigen-immobilized plates. 20 μL/well of blocking-treated E. coli extract was added to the antigen-immobilized plates and gently stirred at room temperature using a plate mixer. […] The plates were washed 5 times with 100 μL/well of TBST, and binding of cyclic peptides to the antigen was detected by 20 μL/well of chromogenic substrate (0.4 mg/mL 3,3′,5,5′-Tetramethyl-benzidine, 0.01% hydrogen peroxide). After 15 minutes of reaction at room temperature, the reaction was stopped with 20 μL/well of 2N HCl, and absorbance at 450 nm was measured using a plate reader (infinite F200: TECAN) (Table 5).
(§2) An Error-Prone Library was prepared based on H12SSI-Ctla4-3-02, and Affinity Maturation selection experiments were performed. The cyclic peptide genes obtained in each round were subcloned, 94 single colonies were cultured in 96-well plates, and the CTLA-4 binding activity of each MBP-fused cyclic peptide was examined by ELISA.
In general terms: ELISA stands for enzyme-linked immunosorbent assay.
GGCMHPYLPVISHHFCGR (peptide, not shown: large carriers; small tags and cut ends, MBP fusion; also called #16) [C4-302mat-3-100-12]: the “ELISA A450” value turned out to be 1.18.
Still for that read-out and setting: the result for GSCMHPFLPVASRHFCGR (peptide, not shown: large carriers; small tags and cut ends, MBP fusion; also called #23) [C4-302mat-3-1-31] reads 0.868.
The same measure, in the same setting: as for GGCMHPFLPIVSHHFCGS (peptide, not shown: large carriers; small tags and cut ends, MBP fusion; also called #18) [C4-302mat-2-100-27], the figure is 1.29.
The same measure, in the same setting: the result for GGCMHPFLPIASLHFCGR (peptide, not shown: large carriers; small tags and cut ends, MBP fusion; also called #20) [C4-302mat-3-1-23] reads 1.21.
Turning to GGCMHPFLPILSHHFCAG (peptide, not shown: large carriers; small tags and cut ends, MBP fusion; also called #21) [C4-302mat-3-1-32], the “ELISA A450” value came to 0.656.
Consider GGCMHPFLPVVSRHFCGR (peptide, not shown: large carriers; small tags and cut ends, MBP fusion; also called #25) [C4-302mat-3-1-12], for which the “ELISA A450” value stood at 0.95.
Same read-out and setting: the result for GGCMHPFLPVTSHHFCGG (peptide, not shown: large carriers; small tags and cut ends, MBP fusion; also called #17) [C4-302mat-2-1-3] reads 0.802.
As for GGCMHPFLPVVSRHFCGG (peptide, not shown: large carriers; small tags and cut ends, MBP fusion; also called #24) [C4-302mat-3-1-5], the “ELISA A450” value is 0.438.

A further experiment deals with T2, CTLA-4 expressed on the cell surface of …. The experiment in a line: FACS on CHO cells expressing CTLA-4, synthetic peptide.
As to B1, the midpoint of the response, the EC50, lay at 0.47 µM.

For a further experiment, the target named is T1, Orencia. Put plainly: ELISA, signal on Orencia over SA. The method, then:
as §1, §2
As for GGCMHPYLPVISHHFCGR (peptide, not shown: large carriers; small tags and cut ends, MBP fusion; also called #16) [C4-302mat-3-100-12], the “S/N(SA)” value came out at 19.4.
The same measure, in the same setting: as for GSCMHPFLPVASRHFCGR (peptide, not shown: large carriers; small tags and cut ends, MBP fusion; also called #23) [C4-302mat-3-1-31], the figure is 13.2; as for GGCMHPFLPIVSHHFCGS (peptide, not shown: large carriers; small tags and cut ends, MBP fusion; also called #18) [C4-302mat-2-100-27], 25.2.
On the same count and under the same terms, the result for GGCMHPFLPIASLHFCGR (peptide, not shown: large carriers; small tags and cut ends, MBP fusion; also called #20) [C4-302mat-3-1-23] reads 19.7; that for GGCMHPFLPILSHHFCAG (peptide, not shown: large carriers; small tags and cut ends, MBP fusion; also called #21) [C4-302mat-3-1-32], 11.4.
The same measure, in the same setting: as for GGCMHPFLPVVSRHFCGR (peptide, not shown: large carriers; small tags and cut ends, MBP fusion; also called #25) [C4-302mat-3-1-12], the figure is 17.9.
Consider GGCMHPFLPVTSHHFCGG (peptide, not shown: large carriers; small tags and cut ends, MBP fusion; also called #17) [C4-302mat-2-1-3], for which the “S/N(SA)” value stood at 14.8.
With GGCMHPFLPVVSRHFCGG (peptide, not shown: large carriers; small tags and cut ends, MBP fusion; also called #24) [C4-302mat-3-1-5], the “S/N(SA)” value is 5.9.

The next experiment addresses T3, CTLA4 of the CTLA4:B7-1[Biotinylated] …. Put plainly: CTLA4:B7-1[Biotinylated] Inhibitor Screening Assay Kit, synthetic peptide against biotinylated B7-1. An excerpt:
Inhibitor Screening Assay Kit (BPS Biosciences) as described above.
The molecule B2 showed an IC50 of 11.5 µM.

As a reminder, the EC50 is the concentration giving half of the maximal effect. The low end stands for greater potency, the high end for weaker potency. One may read the IC50 as the concentration needed to halve the response being measured. Low values mean greater potency, high ones weaker potency.

Values taken from patent US20240092836A1 (GENEFRONTIER, published 2024).
